The source of these data is article PMC11617674, “The activity of the ribonucleotide monophosphatase UmpH is controlled by interaction with the GlnK signaling protein in Escherichia coli” (The Journal of Biological Chemistry, 2024).

The target of this assay is T1, UmpH (ribonucleotide monophosphatase), untagged recombinant (E. coli, UniProt P0AF24 1-250).
T1 construct: UmpH (NagD), ribonucleotide monophosphatase of E. coli; also called NagD; untagged UmpH; source: E. coli BL21 (λDE3), pET29a, purified (ammonium sulfate, gel filtration)
T1 sequence (looked up): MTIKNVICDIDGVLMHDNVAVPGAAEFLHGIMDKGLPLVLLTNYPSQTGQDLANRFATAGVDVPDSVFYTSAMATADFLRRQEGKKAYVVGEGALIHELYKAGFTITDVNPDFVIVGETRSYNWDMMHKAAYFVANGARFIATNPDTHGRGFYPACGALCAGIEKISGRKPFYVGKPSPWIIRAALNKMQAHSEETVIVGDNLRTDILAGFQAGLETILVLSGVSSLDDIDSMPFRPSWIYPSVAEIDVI
The assay is described as follows: pull-down; His-PII on Ni2+ magnetic beads, untagged UmpH; 50 mM Tris-HCl pH 8.0, 0.1 M NaCl, 5 mM MgCl2, 10% glycerol, 20 mM imidazole; room temperature; without nucleotides or with ATP or ADP (effectors as indicated); SDS-PAGE, Coomassie. The following applies: both partners purified.

B1: His-GlnB from Azospirillum brasilense (natural protein, UniProt P21193 1-112, looked up)
chain: MKKIEAIIKPFKLDEVKEALHEVGIKGITVTEAKGFGRQKGHTELYRGAEYVVDFLPKVKIEVVMEDSLVERAIEAIQQAAHTGRIGDGKIFVTPVEEVVRIRTGEKGGDAI
notes: GlnB, PII protein of Azospirillum brasilense; also called GlnBAb; His-AbPII; not shown: His tag, N-terminal, kept
For the molecule B1, the binding result is reported as “binds”.
